Usually IC50 stands for the point on the concentration scale where inhibition reaches its midpoint. One may read the Kd as the constant that tells how readily two partners part at equilibrium. The koff is the rate constant with which the complex falls apart. As a reminder, the kon is the second-order rate constant of association.

This note sets out measurements from patent US20210015937A1 (CRESCENDO BIOLOGICS, published 2021).

Positions count from the first letter of the chain named. Numbers in names are those of the source. Bounds are passed on as bounds.

For test [1], the target named is T1, human PD-1 expressed on cells (human, UniProt Q15116 25-288). As to the kind of experiment: cell-based or functional assay.
Test [2] deals with T1, human PD-1 expressed on cells. As to the kind of experiment: cell-based or functional assay. This is another data set of the same source.
The target of test [3] is T2, human LAG-3 expressed on cells (human, UniProt P18627 23-525).
T2 sequence: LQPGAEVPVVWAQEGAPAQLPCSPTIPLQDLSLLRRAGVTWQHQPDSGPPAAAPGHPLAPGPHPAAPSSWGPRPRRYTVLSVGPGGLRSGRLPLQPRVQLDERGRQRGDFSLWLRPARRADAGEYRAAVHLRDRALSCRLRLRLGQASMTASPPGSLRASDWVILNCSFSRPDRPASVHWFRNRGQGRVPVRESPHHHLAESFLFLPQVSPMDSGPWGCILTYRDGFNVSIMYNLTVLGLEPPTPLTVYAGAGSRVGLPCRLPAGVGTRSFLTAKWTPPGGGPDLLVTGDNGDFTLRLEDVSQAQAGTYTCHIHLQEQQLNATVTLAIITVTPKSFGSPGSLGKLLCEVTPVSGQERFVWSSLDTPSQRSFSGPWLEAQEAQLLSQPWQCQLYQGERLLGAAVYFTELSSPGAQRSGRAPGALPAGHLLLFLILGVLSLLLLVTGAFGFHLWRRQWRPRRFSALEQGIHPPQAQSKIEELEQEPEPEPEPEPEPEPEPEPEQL
Description: cell-based or functional assay.

Test [4] addresses T1, human PD-1 expressed on cells. Description: FMAT inhibition of human Fc tagged PD-L1 binding to CHO human PD-1 cells. As for the experimental part: All reagents and serially diluted VH were prepared in FMAT assay buffer. […] Plates were incubated for 2 hours at room temperature then fluorescence measured in the FL2 (502 nm-537 nm) and FL5 (677-800 nm) channels on the Mirrorball plate reader (TTP) following excitation at 488 nm and 640 nm. Data was expressed as a % of the total binding control (i.e. % control) after subtraction of the background signal determined from the non-specific binding control wells.

The target in test [5] is T3, Rhesus monkey LAG-3 (used as cynomolgus LAG-3) (Rhesus monkey (called cynomolgus in the …)).
T3 construct: extracellular domain
Description: BLI (Octet); cynomolgus LAG-3 immobilised on ARG2 sensors, 1:1 fit. As for the experimental part:
(§1) Binding kinetics for multi-valent and bispecific VH were also measured in real-time bio-layer interferometer based biosensor Octet (ForteBio). […] All the binding studies were performed in HBS-ET Octet kinetics buffer. Biosensors were washed in Octet kinetics buffer in between different steps. […] The contact time for each of the association steps was 150 seconds and the dissociation step was 400 seconds. […] To compare the constructs, kinetic association (kₐ) and dissociation (kd) rate constants were determined by processing and fitting the data to a 1:1 binding model using ForteBio Analysis software.
(Biolayer interferometry detects binding as a change in optical thickness at a sensor tip.)

In test [6] the target is T4, recombinant human LAG-3-Fc (human, UniProt P18627 23-450).
T4 construct: also called human LAG-3 (R&D Systems cat no. 2319-L3); LAG3 antigen
T4 sequence: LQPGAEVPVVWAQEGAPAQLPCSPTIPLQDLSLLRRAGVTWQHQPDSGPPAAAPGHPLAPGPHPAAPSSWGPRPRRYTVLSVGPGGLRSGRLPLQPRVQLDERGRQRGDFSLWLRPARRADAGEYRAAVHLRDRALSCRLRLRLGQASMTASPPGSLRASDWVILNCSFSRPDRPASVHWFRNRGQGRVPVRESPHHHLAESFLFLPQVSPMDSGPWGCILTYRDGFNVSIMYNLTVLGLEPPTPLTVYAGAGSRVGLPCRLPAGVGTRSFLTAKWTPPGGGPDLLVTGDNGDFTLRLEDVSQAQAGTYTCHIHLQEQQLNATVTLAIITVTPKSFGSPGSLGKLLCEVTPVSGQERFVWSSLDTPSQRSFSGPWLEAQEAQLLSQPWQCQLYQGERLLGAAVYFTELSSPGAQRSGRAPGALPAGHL
Description: BLI (Octet); human LAG-3-Fc captured on protein G biosensors, 1:1 fit. As for the experimental part:
as §1

Test [7] has as its target T4, recombinant human LAG-3-Fc. Description: BLI (Octet); human LAG-3-Fc amine-coupled to biosensor, VH in solution, 1:1 fit. The method, then:
Binding kinetics were measured in real-time bio-layer interferometer based biosensor Octet (ForteBio). […] All the binding studies were performed in HBS-ET Octet kinetics buffer. Biosensors were washed in Octet kinetics buffer in between different steps. A seven point, two-fold dilution series of each Humabody® VH was made with a top concentration of 1.6 μM. The contact time for each of the association steps was 150 seconds and the dissociation step was 300-400 seconds. Kinetic association (kₐ) and dissociation (kd) rate constants were determined by processing and fitting the data to a 1:1 binding model using ForteBio Analysis software.

T1 sequence (Q15116 25-288 limits assumed): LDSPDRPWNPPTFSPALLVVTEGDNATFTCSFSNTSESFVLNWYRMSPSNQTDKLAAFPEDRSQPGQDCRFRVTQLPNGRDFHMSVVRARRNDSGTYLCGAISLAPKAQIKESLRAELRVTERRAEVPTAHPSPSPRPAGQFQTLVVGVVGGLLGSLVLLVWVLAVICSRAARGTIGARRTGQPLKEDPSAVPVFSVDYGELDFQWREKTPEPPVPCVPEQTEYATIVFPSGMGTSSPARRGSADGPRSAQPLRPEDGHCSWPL

B1: 2.77-6GS-1.1-6GS-1.1 (bispecific antibody)
chain: EVQLVESGGGLVKPGGSLRLSCAASGFTFSDSSMTWMRQAPGKGLEWVSYISSGGGVKFYTDSVKGRFTISRDNAKNSLYLQMNSLRAEDTAVYYCAREAPLRLGESPHDAFDISGQGTMVTVSSGGGGSGGGGSGGGGSGGGGSGGGGSGGGGSEVQLVESGGGVVRPGGSLRLSCSASGFTFDDYGMSWVRQAPGKGLEWVSGIHWNGGNSGYADSVKGRFTISRDNAKNSLYLQMNSLRAEDTALYYCARIPREDCSSASCYTDAIDFWGPGTMVTVSSGGGGSGGGGSGGGGSGGGGSGGGGSGGGGSEVQLVESGGGVVRPGGSLRLSCSASGFTFDDYGMSWVRQAPGKGLEWVSGIHWNGGNSGYADSVKGRFTISRDNAKNSLYLQMNSLRAEDTALYYCARIPREDCSSASCYTDAIDFWGPGTMVTVSSAAAHHHHHH
Turning to B1, the “potency in the PD-1:PD-L1 NFAT-luciferase reporter assay, fold lower than monoclonal antibodies” value in test [1] was more than 30 fold. The “EC50 (M), NFAT-Luciferase Reporter Gene assay (PD-1:PD-L1)” value (“EC50 (M) … (PD-1:PD-L1)” for short) in test [2] was 3.7e-08 M. Further, in test [3], the “EC50 (M), NFAT-Luciferase Reporter Gene assay (LAG-3:MHCII)” value (from here on “EC50 (M) … (LAG-3:MHCII)”) was determined as 6.6e-09 M.

B2: VH 2.80 (VHH)
VHH: EVQLVESGGGLVKPGGSLRLSCAASGFTFSDSSMTWMRQAPGKGLEWVSYISSGGGVKFYADSVKGRFTISRDNAKNSLYLQMNSLRAEDTAVYYCAREAPLRLGESPHDAFDISGQGTMVTVSS
notes: Human VH single domain antibody against PD-1
The molecule B2 had an IC50 in test [4] of 1.82 nM.

B3: VH 2.77 (VHH)
VHH: B2 VHH with A61T
Take B3: in test [2], the “EC50 (M) … (PD-1:PD-L1)” value is 9.7e-09 M.

B4: VH 2.92 (VHH)
VHH: B2 VHH with S32E
notes: as for B2
As for B4, in test [2], the “EC50 (M) … (PD-1:PD-L1)” value came out at 1.4e-08 M. Further, the 50% inhibitory concentration (IC50) in test [4] came to 2.8 nM.

B5: VH 1.2-6GS-VH 1.2 (VHH)
chain: EVQLVESGGGVVRPGGSLRLSCAASGFTFDDYGMSWVRQAPGKGLEWVSGIHWNGGSTGYADSVKGRFTISRDNAKNSLYLQMNSLRAEDTALYYCARIPREDCSSASCYTDAIDFWGQGTMVTVSSGGGGSGGGGSGGGGSGGGGSGGGGSGGGGSEVQLVESGGGVVRPGGSLRLSCAASGFTFDDYGMSWVRQAPGKGLEWVSGIHWNGGSTGYADSVKGRFTISRDNAKNSLYLQMNSLRAEDTALYYCARIPREDCSSASCYTDAIDFWGQGTMVTVSSAAAHHHHHH
notes: It is built here from its name, the (Gly4Ser)n linker definition and the statement that the constructs used carried C-terminal AAA-His6; also called 1.2-6GS-1.2; LAG3 bivalent
In test [5], B5 registered a Kd of 0.536 nM, a koff of 0.000148 s⁻¹ and a kon of 276000 M⁻¹ s⁻¹. In addition, in test [6], the Kd came out at 0.744 nM, the koff is 0.00112 s⁻¹ and the kon came out at 1.5e+06 M⁻¹ s⁻¹.

B6: VH1.1-4GS-VH1.1-His6 (VHH)
chain: EVQLVESGGGVVRPGGSLRLSCSASGFTFDDYGMSWVRQAPGKGLEWVSGIHWNGGNSGYADSVKGRFTISRDNAKNSLYLQMNSLRAEDTALYYCARIPREDCSSASCYTDAIDFWGPGTMVTVSSGGGGSGGGGSGGGGSGGGGSEVQLVESGGGVVRPGGSLRLSCSASGFTFDDYGMSWVRQAPGKGLEWVSGIHWNGGNSGYADSVKGRFTISRDNAKNSLYLQMNSLRAEDTALYYCARIPREDCSSASCYTDAIDFWGPGTMVTVSSAAAHHHHHH
On to B6, for which the “EC50 (M) … (LAG-3:MHCII)” value in test [3] is 1.4e-09 M.

B7: VH 1.2 (VHH)
VHH: EVQLVESGGGVVRPGGSLRLSCAASGFTFDDYGMSWVRQAPGKGLEWVSGIHWNGGSTGYADSVKGRFTISRDNAKNSLYLQMNSLRAEDTALYYCARIPREDCSSASCYTDAIDFWGQGTMVTVSS
notes: Human VH single domain antibody against LAG-3; It is VH 1.1 with S23A, P119Q, N57S and S58T; also called variant 2
B7: in test [7], the Kd came to 72.1 nM, the koff came to 0.00179 s⁻¹ and the kon was found to be 24800 M⁻¹ s⁻¹.

B8: variant 8 of VH 1.1 (VHH)
VHH: B7 VHH with D30N, S57N, T58S, A107T, Q119P
notes: 4
As to B8, in test [7], the Kd was found to be 13 nM, the dissociation rate constant (koff) amounted to 0.00126 s⁻¹ and the kon is 96700 M⁻¹ s⁻¹.

B9: variant 6 of VH 1.1 (VHH)
VHH: B7 VHH with Y32F, G55S, G56D, S57I, G59A, Q119P
notes: 4
As to B9, in test [7], the Kd came out at 31.3 nM, the koff worked out at 0.00343 s⁻¹ and the kon is 110000 M⁻¹ s⁻¹.

B10: variant 9 of VH 1.1 (VHH)
VHH: B7 VHH with G56D, Y95H, Q119P
notes: 4
In the case of B10, in test [7], the Kd turned out to be 53.2 nM, the koff was determined as 0.00383 s⁻¹ and the kon was determined as 72100 M⁻¹ s⁻¹.

B11: variant 3 of VH 1.1 (VHH)
VHH: B7 VHH with Q119P
notes: 4
With B11, in test [7], the Kd is 34.5 nM, the koff turned out to be 0.000899 s⁻¹ and the kon is 26100 M⁻¹ s⁻¹.

B12: variant 4 of VH 1.1 (VHH)
VHH: B7 VHH with N54I, S57N, T58S, Q119P
notes: 4
As to B12, in test [7], the Kd came out at 8.41 nM, the koff was determined as 0.000479 s⁻¹ and the kon was 56900 M⁻¹ s⁻¹.

B13: variant 7 of VH 1.1 (VHH)
VHH: B7 VHH with Y32F, S57N, S106V, S108A, Q119P
notes: 4
Turning to B13, in test [7], the Kd stood at 35.5 nM, the koff came out at 0.000847 s⁻¹ and the kon was found to be 23900 M⁻¹ s⁻¹.

B14: variant 5 of VH 1.1 (VHH)
VHH: B7 VHH with D30N, Y32F, S57N, Q119P
notes: 4
For B14, in test [7], the Kd was found to be 7.9 nM, the koff was determined as 0.000517 s⁻¹ and the kon was found to be 65500 M⁻¹ s⁻¹.

B15: variant 1 of VH 1.1 (VHH)
VHH: B7 VHH with S57N, T58S, Q119P
Regarding B15, in test [7], the Kd came out at 35.5 nM, the koff came to 0.000912 s⁻¹ and the kon amounted to 27000 M⁻¹ s⁻¹.

B16: VH1.1-12GS-VH1.1-His6 (VHH)
chain: EVQLVESGGGVVRPGGSLRLSCSASGFTFDDYGMSWVRQAPGKGLEWVSGIHWNGGNSGYADSVKGRFTISRDNAKNSLYLQMNSLRAEDTALYYCARIPREDCSSASCYTDAIDFWGPGTMVTVSSGGGGSGGGGSGGGGSGGGGSGGGGSGGGGSGGGGSGGGGSGGGGSGGGGSGGGGSGGGGSEVQLVESGGGVVRPGGSLRLSCSASGFTFDDYGMSWVRQAPGKGLEWVSGIHWNGGNSGYADSVKGRFTISRDNAKNSLYLQMNSLRAEDTALYYCARIPREDCSSASCYTDAIDFWGPGTMVTVSSAAAHHHHHH
As to B16, in test [3], the “EC50 (M) … (LAG-3:MHCII)” value was 3.3e-09 M.

B17: VH1.1-8GS-VH1.1-His6 (VHH)
chain: EVQLVESGGGVVRPGGSLRLSCSASGFTFDDYGMSWVRQAPGKGLEWVSGIHWNGGNSGYADSVKGRFTISRDNAKNSLYLQMNSLRAEDTALYYCARIPREDCSSASCYTDAIDFWGPGTMVTVSSGGGGSGGGGSGGGGSGGGGSGGGGSGGGGSGGGGSGGGGSEVQLVESGGGVVRPGGSLRLSCSASGFTFDDYGMSWVRQAPGKGLEWVSGIHWNGGNSGYADSVKGRFTISRDNAKNSLYLQMNSLRAEDTALYYCARIPREDCSSASCYTDAIDFWGPGTMVTVSSAAAHHHHHH
Consider B17, for which the “EC50 (M) … (LAG-3:MHCII)” value in test [3] is 5.4e-09 M.
